3 substances from patent publication US20100040577 can be followed below.

The subject of this series is human recombinant CXCL10 (1-77).

Chain of human recombinant CXCL10 (1-77) (chain, as listed by the source): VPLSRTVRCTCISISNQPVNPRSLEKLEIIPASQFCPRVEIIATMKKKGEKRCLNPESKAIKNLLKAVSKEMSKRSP

Take active MMP2: the “cleavage of CXCL10 (SELDI-TOF mass analysis)” value is recorded as “MMP2 did not alter the mass of CXCL10”.
Still for that read-out and setting: as for active MMP9, the entry is “MMP9 cleaved 9 amino acids from CXCL10”.
As for recombinant DPP4, the “molecular weight difference after in vitro digestion (SELDI-TOF mass spectrometry)” value is “The molecular weight difference (red number) between CXCL10 (1-77) and CXCL10 (3-77) is 0.2 KDa, corresponding to a 2 amino-acid difference”.
